From paper PMC3299805 (Immunity, 2012) come the findings set out here.

Where two headings read alike, the source gives them in different places.

Assay [1] deals with T1, JAK2 catalytic domain, JAK2JH1 (UniProt O60674 840-1128). Description: steady-state enzyme kinetics.
The target of assay [2] is T1, JAK2 catalytic domain, JAK2JH1. Description: steady-state enzyme kinetics. The source holds these as a separate data set.
For assay [3] the target is unchanged. Briefly: cell-based or functional assay.

T1 sequence (O60674 840-1128): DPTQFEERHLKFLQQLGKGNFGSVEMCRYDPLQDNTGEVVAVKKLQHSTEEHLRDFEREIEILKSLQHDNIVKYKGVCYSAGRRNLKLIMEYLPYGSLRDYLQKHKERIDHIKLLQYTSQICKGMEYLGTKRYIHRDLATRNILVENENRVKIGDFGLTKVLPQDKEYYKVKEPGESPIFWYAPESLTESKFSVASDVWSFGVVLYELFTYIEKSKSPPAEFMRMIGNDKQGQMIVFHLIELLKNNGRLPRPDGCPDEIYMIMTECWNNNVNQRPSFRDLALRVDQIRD

B1: SOCS3_(22–225)ΔPEST in complex with elongins B and C (complex)
chain 1: LKTFSSKSEYQLVVNAVRKLQESGFYWSAVTGGEANLLLSAEPAGTFLIRDSSDQRHFFTLSVKTQSGTKNLRIQCEGGSFSLQSDPRSTQPVPRFDCVLKLVHHYMGSGSGSGSAYYIYSGGEKIPLVLSRPLSSNVATLQHLCRKTVNGHLDSYEKVTQLPGPIREFLDQYDAPL
chain 2: MDVFLMIRRHKTTIFTDAKESSTVFELKRIVEGILKRPPDEQRLYKDDQLLDDGKTLGECGFTSQTARPQAPATVGLAFRADDTFEALCIEPFSSPPELPDVMKPQDSGSSANEQAVQ
chain 3: MYVKLISSDGHEFIVKREHALTSGTIKAMLSGPGQFAENETNEVNFREIPSHVLSKVCMYFTYKVRYTNSSTEIPEFPIAPEIALELLMAANFLDC
As a reminder, the Ki is the dissociation constant of the complex between target and ligand, obtained from inhibition or displacement. Read a low Ki as a stronger hold on the target. As to B1, the Ki in assay [1] worked out at 1200 ± 300 nM; in assay [2] it was 1500 ± 700 nM. Further, the “IC50 of inhibition of the kinase domain's activity (Figure 2A)” value in assay [3] was 1500 nM.
